Results: patent US8357523B2, “Beta-glucosidase variant enzymes and related polynucleotides” (Codexis, Inc., priority 2009, dated 2013)

Experiment: High throughput cellobiose assay: fold improvement in cellobiase activity of CelA variants over a control enzyme (Tables 2A-2D, 3, 5, 6, 7)
Format: biochemical
Conditions: 3.3 g/l cellobiose, 50° C. and pH 6.5; compared to native CelA (SEQ ID NO: 4)
Experimental: β-glucosidase activity was also determined using a cellobiose assay, which used cellobiose as substrate. In a total volume of 100 μL, 25 μL clear media supernatant containing CelA enzyme was added to 10 g/L cellobiose (Fluka Cat. No. 22150, Sigma-Aldrich, Inc., St. Louis, Mo.) in 100 mM sodium phosphate buffer (pH 6-7) or sodium acetate buffer (pH 5-5.5). The reaction was incubated at 45-70° C. for an appropriate time (25 minutes to overnight depending on the enzyme concentration) while shaking. Glucose production was determined using an enzymatic glucose assay (K-GLUC, Megazyme, Ireland). 10 μl of each reaction was added to 190 μl GOPOD reagent (supplied as part of the K-GLUC assay kit). The reaction was incubated at 45° C. for 20 minutes and the absorbance of the solution was measured at 510 nm. The GOPOD reagent contains 50 mM Potassium phosphate buffer pH7.4, 0.011M p-hydroxybenzoic acid, 0.008% w/v sodium azide, glucose oxidase (>12,000 U/L), peroxidase (>650 U/L) and 80 mg/L 4-aminoantipyrine. The glucose oxidase enzyme in the reagent reacts with any glucose present in the sample and produces hydrogen peroxide which then reacts with the 4-aminoantipyrine to produce a quinoneimine dye in quantities proportionate with the amount of glucose present and can be measured spectrophotometrically at 510 nm. Detectable β-glucosidase activity was observed under high throughput screening conditions (i.e., pH 7, 50° C.).
Plasmid libraries containing variant CelA genes were transformed into B. megaterium and plated on Luria-Bertani (LB) agar plates containing 3 μg/mL tetracycline with a DM3 regeneration media overlay (400 mM sodium succinate dibasic, pH 7.3, 0.5% casamino acids, 0.5% yeast extract, 0.4% K2HPO4, 0.2% KH2PO4, 20 mM MgCl2, 0.5% glucose and 0.2% BSA). After incubation for at least 18 hours at 30° C., colonies were picked using a Q-bot® robotic colony picker (Genetix USA, Inc., Beaverton, Oreg.) into shallow, 96-well well microtiter plates containing 180 μL, LB and 10 μg/mL tetracycline. Cells were grown overnight at 37° C. with shaking at 200 rpm and 85% humidity. 10 μL of this culture was then transferred into 96-well microtiter plates (deep well) containing 390 μL A5-glucose-xylose medium and 10 μg/mL tetracycline as described in example 2. The plates were then incubated at 37° C. with shaking at 250 rpm and 85% humidity overnight (˜18-24 hours). The deep plates were centrifuged at 4000 rpm for 15 minutes and the clear media supernatant containing the secreted CelA enzyme was used for the high throughput pNPG or cellobiose assay of Example 5.
The CelA libraries were screened in high throughput using the cellobiose assay of Example 5 (Substrate: cellobiose; pH: 5-7; temperature: 45-72° C.; time: 2-24 hrs) for the identification of improved variants.
In shallow, 96-well microtiter plates 25 μL of media supernatant was added to 75 μL of […] cellobiose in 150 mM sodium acetate buffer pH 5-5.5 or 150 mM sodium phosphate buffer pH6-7. After sealing with aluminum/polypropylene laminate heat seal tape (Velocity 11 (Menlo Park, Calif.), Cat#06643-001), the plates were shaken at 45-65° C. for up to 24 hrs. The plates were centrifuged for 5 minutes at 4000 rpm. In shallow well clear microtiter plates, 10 μL of the reaction mixture was added to 190 μL of GOPOD reagent (as in example 5B) per well. The solutions were incubated at 45° C. for 1 hour and absorbance was measured at 510 nm for the identification of active CelA variants.
Improved CelA variants were identified from the high throughput screening of various CelA variant libraries as described in Example 7, using the cellobiose assay of Example 5 using 3.3 g/l cellobiose at temperatures from 50°-55° C. at a pH in the range of 5.3-6.5. Tables 2A, 2B, 2C, and 2D and Table 3 depict the improvement in activities of CelA variants encompassed by the invention. The assay conditions are indicated in each table. […]

| Molecule | Fold improvement over wildtype CelA |
| --- | --- |
| 35 (protein) STAIAQEGAAPAAILHPEKWPRPATQRLIDPAVEKRVDALLKQLSVEEKVGQVIQGDIGTITPEDLRKYPLGSILAGGNSGPNGDDRAPPKEWLDLADAFYRVSLEKRPGHTPIPVLFGIDAVHGHGNIGSATIFPHNIALGATHDPELLRRIGEVTAVEMAATGIDWTFAPALSVVRDDRWGRTYEGFSEDPEIVAAYSAKIVEGVQGKFGSKDFMAPGRIVASAKHFLADGGTDQGRDQGDARISEDELIRIHNAGYPPAIDAGVLTVMASFSSWQGIKHHGHKQLLTDVLKGQMGFNGFIVGDWNAHDQVPGCTKFNCPTSLIAGLDMYMAADSWKQLYENTLAQVKDGTIPMARLDDAVRRILRVKVLAGLFEKPAPKDRPGLPGLETLGSPEHRAVGREAVRKSLVLLKNDKGTLPLSPKARVLVAGDGADNIGKQSGGWTISWQGTGNRNDEFPGATSILGGIRDAVADAGGSVEFDVAGQYKTKPDVAIVVFGEEPYAEFQGDVETLEYQPDQKQDLALLKKLKDQGIPVVAVFLSGRPMWVNPELNASDAFVAAWLPGTEGGGVADVLFTDKAGKVQHDFAGKLSYSWPRTAAQTTVNRGDADYNPLFAYGYGLTYKDKSKVGTLPEESGVPAEARQNAGIYFRAGALRLPGRFL | + (+ = 1.1 to 2.0 fold improvement over native CelA (SEQ ID NO: 4)) |
| 37 (protein) STAIAQEGAAPAAILHPEKWPRPATQRLIDPAVEKRVDALLKQLSVEEKVGQVIQGDIGTITPEDLRKYPLGSILAGGNSGPNGDDRAPPKEWLDLADAFYRVSLEKRPGHTPIPVLFGIDAVHGHGNIGSATIFPHNIALGATHDPELLRRIGEVTAVEMAATGIDWTFAPALSVVRDDRWGRTYEGFSEDPELVAAYSAAIVEGVQGKFGSKDFMAPGRIVASAKHFLADGGTDQGRDQGDARISEDELIRIHNAGYPPAIDAGVLTVMASFSSWQGIKHHGHKQLLTDVLKGQMGFNGFIVGDWNAHDQVPGCTKFNCPTSLIAGLDMYMAADSWKQLYENTLAQVKDGTIPMARLDDAVRRILRVKVLAGLFEKPAPKDRPGLPGLETLGSPEHRAVGREAVRKSLVLLKNDKGTLPLSPKARVLVAGDGADNIGKQSGGWTISWQGTGNRNDEFPGATSILGGIRDAVADAGGSVEFDVAGQYKTKPDVAIVVFGEEPYAEFQGDVETLEYQPDQKQDLALLKKLKDQGIPVVAVFLSGRPMWVNPELNASDAFVAAWLPGTEGGGVADVLFTDKAGKVQHDFAGKLSYSWPRTAAQTTVNRGDADYNPLFAYGYGLTYKDKSKVGTLPEESGVPAEARQNAGIYFRAGALRLPGRFL | + (+ = 1.1 to 2.0 fold improvement over native CelA (SEQ ID NO: 4)) |
| 36 (protein) STAIAQEGAAPAAILHPEKWPRPATQRLIDPAVEKRVDALLKQLSVEEKVGQVIQGDIGTITPEDLRKYPLGSILAGGNSGPNGDDRAPPKEWLDLADAFYRVSLEKRPGHTPIPVLFGIDAVHGHGNIGSATIFPHNIALGMTHDPELLRRIGEVTAVEMAATGIDWTFAPALSVVRDDRWGRTYEGFSEDPEIVAAYSAAIVEGVQGKFGSKDFMAPGRIVASAKHFLADGGTDQGRDQGDARISEDELIRIHNAGYPPAIDAGVLTVMASFSSWQGIKHHGHKQLLTDVLKGQMGFNGFIVGDWNAHDQVPGCTKFNCPTSLIAGLDMYMAADSWKQLYENTLAQVKDGTIPMARLDDAVRRILRVKVLAGLFEKPAPKDRPGLPGLETLGSPEHRAVGREAVRKSLVLLKNDKGTLPLSPKARVLVAGDGADNIGKQSGGWTISWQGTGNRNDEFPGATSILGGIRDAVADAGGSVEFDVAGQYKTKPDVAIVVFGEEPYAEFQGDVETLEYQPDQKQDLALLKKLKDQGIPVVAVFLSGRPMWVNPELNASDAFVAAWLPGTEGGGVADVLFTDKAGKVQHDFAGKLSYSWPRTAAQTTVNRGDADYNPLFAYGYGLTYKDKSKVGTLPEESGVPAEARQNAGIYFRAGALRLPGRFL | + (+ = 1.1 to 2.0 fold improvement over native CelA (SEQ ID NO: 4)) |
| 40 (protein) STAIAQEGAAPAAILHPEKWPRPATQRLIDPAVEKRVDALLKQLSVEEKVGQVIQGDIGTITPEDLRKYPLGSILAGGNSGPNGDDRAPPKEWLDLADAFYRVSLEKRPGHTPIPVLFGIDAVHGHGNIGSATIFPHNIALGATHDPELLRRIGEVTAVEMAATGIDWTFAPCLSVVRDDRWGRTYEGFSEDPEIVAAYSAAIVEGVQGKFGSKDFMAPGRIVASAKHFLADGGTDQGRDQGDARISEDELIRIHNAGYPPAIDAGVLTVMASFSSWQGIKHHGHKQLLTDVLKGQMGFNGFIVGDWNAHDQVPGCTKFNCPTSLIAGLDMYMAADSWKQLYENTLAQVKDGTIPMARLDDAVRRILRVKVLAGLFEKPAPKDRPGLPGLETLGSPEHRAVGREAVRKSLVLLKNDKGTLPLSPKARVLVAGDGADNIGKQSGGWTISWQGTGNRNDEFPGATSILGGIRDAVADAGGSVEFDVAGQYKTKPDVAIVVFGEEPYAEFQGDVETLEYQPDQKQDLALLKKLKDQGIPVVAVFLSGRPMWVNPELNASDAFVAAWLPGTEGGGVADVLFTDKAGKVQHDFAGKLSYSWPRTAAQTTVNRGDADYNPLFAYGYGLTYKDKSKVGTLPEESGVPAEARQNAGIYFRAGALRLPGRFL | ++ (++ = 2.1 to 2.6 fold improvement over native CelA (SEQ ID NO: 4)) |
| 38 (protein) STAIAQEGAAPAAILHPEKWPRPATQRLIDPAVEKRVDALLKQLSVEEKVGQVIQGDIGTITPEDLRKYPLGSILAGGNSGPNGDDRAPPKEWLDLADAFYRVSLEKRPGHTPIPVLFGIDAVHGHGNIGSATIFPHNIALGATHDPELLRRIGEVTAVEMAATGIDWTFAPSLSVVRDDRWGRTYEGFSEDPEIVAAYSAAIVEGVQGKFGSKDFMAPGRIVASAKHFLADGGTDQGRDQGDARISEDELIRIHNAGYPPAIDAGVLTVMASFSSWQGIKHHGHKQLLTDVLKGQMGFNGFIVGDWNAHDQVPGCTKFNCPTSLIAGLDMYMAADSWKQLYENTLAQVKDGTIPMARLDDAVRRILRVKVLAGLFEKPAPKDRPGLPGLETLGSPEHRAVGREAVRKSLVLLKNDKGTLPLSPKARVLVAGDGADNIGKQSGGWTISWQGTGNRNDEFPGATSILGGIRDAVADAGGSVEFDVAGQYKTKPDVAIVVFGEEPYAEFQGDVETLEYQPDQKQDLALLKKLKDQGIPVVAVFLSGRPMWVNPELNASDAFVAAWLPGTEGGGVADVLFTDKAGKVQHDFAGKLSYSWPRTAAQTTVNRGDADYNPLFAYGYGLTYKDKSKVGTLPEESGVPAEARQNAGIYFRAGALRLPGRFL | + (+ = 1.1 to 2.0 fold improvement over native CelA (SEQ ID NO: 4)) |
| 39 (protein) STAIAQEGAAPAAILHPEKWPRPATQRLIDPAVEKRVDALLKQLSVEEKVGQVIQGDIGTITPEDLRKYPLGSILAGGNSGPNGDDRAPPKEWLDLADAFYRVSLEKRPGHTPIPVLFGIDAVHGHGNIGSATIFPHNIALGQTHDPELLRRIGEVTAVEMAATGIDWTFAPALSVVRDDRWGRTYEGFSEDPEIVAAYSAAIVEGVQGKFGSKDFMAPGRIVASAKHFLADGGTDQGRDQGDARISEDELIRIHNAGYPPAIDAGVLTVMASFSSWQGIKHHGHKQLLTDVLKGQMGFNGFIVGDWNAHDQVPGCTKFNCPTSLIAGLDMYMAADSWKQLYENTLAQVKDGTIPMARLDDAVRRILRVKVLAGLFEKPAPKDRPGLPGLETLGSPEHRAVGREAVRKSLVLLKNDKGTLPLSPKARVLVAGDGADNIGKQSGGWTISWQGTGNRNDEFPGATSILGGIRDAVADAGGSVEFDVAGQYKTKPDVAIVVFGEEPYAEFQGDVETLEYQPDQKQDLALLKKLKDQGIPVVAVFLSGRPMWVNPELNASDAFVAAWLPGTEGGGVADVLFTDKAGKVQHDFAGKLSYSWPRTAAQTTVNRGDADYNPLFAYGYGLTYKDKSKVGTLPEESGVPAEARQNAGIYFRAGALRLPGRFL | + (+ = 1.1 to 2.0 fold improvement over native CelA (SEQ ID NO: 4)) |
